IntAct's records for PubMed 8887672

B1: RNA polymerase I-specific transcription initiation factor RRN6 (Saccharomyces cerevisiae), P32786 (parent)
chain: MSEGQIPSSDVLGSQLGVGVQGASLYCPQENYTTKKQEKPQWLRPVDDTLAEDALDLHIVVKSLLCDTAIRYISDDKVLQESDADDDLITSDIDEDTDNQGDTSIVVNPVIPVVPKDVHFFKKVDVGNDSMFGVNCDTPVSFQDYIPSDLLRNLDDTLQESTNSSRPMQDAFFWDPTVANRLDSQYIQTASDLRNYRDGTEIIAYASGKTGSVLNIAVLTRQNTLHLNRHNNVTSIELHSPIKSIKIPGASESIGRRSNLVGIITENSFQIFRIESVHSRSCDVMVSSSEPLYFVEIDDLQVVDFAFNPWDLQQFAIIDIKGNWSIGRIPKNFNNNNKRKLQLIDNLHGTIFDPEELSSWKRIEWFSHFQKILVFDRSKMIEIDFMNNWQTEVVQAKAWSNIRDYKRIDDKNGILLTSREIIIVGASESNDPVRRISWKHDLDPDDTTLRITVQKVKKPDHILLVAFVYSMRHKRIYMHVFSHRKANLFQSLGCSTVLEIPGGTPTGIETILTLDHIDDESRREEDADENFELVVDFLVKLRNSSEVYYYALSNTQNSEPNKQETPIIVDHPEWASLFNNADEREKESIGALVSQIKLKERERISRVQNLIEHENSHDEDKYLQDLGYRLSIATNELLESWQKTKDESILSGSLSHSKLKNLLENSDSFASIPEFSSLLDQFFQYYQDQDVTFIGFEKLLHLFLHEDVPGLDIFYNKLLQCWVLVSPQAELLTKEIVKDIIWSLARLEKPSLFEPIQNEISRSLSGPYQDIISSWDMDDINEEDESNEFNFDSQFSAPFNGRPPFNLNSQSQIPTIKSSQSSGLARRKRILKTQSQKATPLSQSTQNLSVLPDSMTPAFTLMQPPSSQISFVNDSQPRNSQKAKKKKKRIRGFG
partner: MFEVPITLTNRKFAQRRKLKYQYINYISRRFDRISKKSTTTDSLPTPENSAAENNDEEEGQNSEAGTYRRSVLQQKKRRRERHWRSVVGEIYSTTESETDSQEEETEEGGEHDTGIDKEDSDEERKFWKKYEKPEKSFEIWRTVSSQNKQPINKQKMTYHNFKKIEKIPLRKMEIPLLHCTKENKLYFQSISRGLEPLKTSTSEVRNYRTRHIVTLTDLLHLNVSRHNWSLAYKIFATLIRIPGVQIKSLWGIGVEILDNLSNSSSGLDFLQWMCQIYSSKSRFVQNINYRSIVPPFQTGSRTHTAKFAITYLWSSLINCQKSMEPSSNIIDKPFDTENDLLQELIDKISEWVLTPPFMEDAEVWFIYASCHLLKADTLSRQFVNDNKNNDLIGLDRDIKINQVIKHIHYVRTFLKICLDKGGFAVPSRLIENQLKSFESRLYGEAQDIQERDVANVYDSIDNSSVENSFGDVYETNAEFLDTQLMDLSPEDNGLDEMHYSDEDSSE
B2: RNA polymerase I-specific transcription initiation factor RRN11 (Saccharomyces cerevisiae), Q04712 (parent)
chain: B1 partner
partner: B1 chain

Variants of: B1
Conditions: with rrn11_yeast RRN11, Q04712

effect of a mutation on the interaction	Variant
decreasing interaction	L50A;L57A;L64A

Variants of: B2
Conditions: with rrn6_yeast RRN6, P32786

effect of a mutation on the interaction	Variant
decreasing interaction	MFEVPITLTNRKFAQRRKLKYQYINYISRRFDRISKKSTTTDSLPTPENSAAENNDEEEGQNSEAGTYRRSVLQQKKRRRERHWRSVVGEIYSTTESETDSQEEETEEGGEHDTGIDKEDSDEERKFWKKYEKPEKSFEIWRTVSSQNKQPINKQKMTYHNFKKIEKIPLRKMEIPLLHCTKENKLYFQSISRGLEPLKTSTSEVRNYRTRHIVTLTDLLHLNVSRHNWSLAYKIFATLIRIPGVQIKSLWGIGVEILDNLSNSSSGLDFLQWMCQIYSSKSRFVQNINYRSIVPPFQTGSRTHTAKFAITYLWSSLINCQKSMEPSSNIIDKPFDTENDLLQELIDKISEWVLTPPFMEDAEVWFIYASCHLLKADTLSRQFVNDNKNNDLIGLDRDIKINQVIKHIHYVRTFLKICLDKGGFAVPSRLIENQLKSFESRLYGEAQDIQERDVANVYDSIDNSSVENSFGDVYETNAEFADTQLMDASPEDNGADEMHYSDEDSSE [L481A;L488A;L495A]
